Data as given in US11833164B2, “Methods of treating Fabry disease in patients having a mutation in the GLA gene” (Amicus Therapeutics, Inc., priority 2019, dated 2023).

Tested on: mutant form of α-Gal A expressed in HEK-293 cells
Experiment: HEK assay (GLP HEK / Migalastat Amenability Assay): α-Gal A activity in lysates of transiently transfected HEK-293 cells incubated with or without 10 μM migalastat
Assay type: cell-based, human
Conditions: for Absolute increase (% WT) / Relative increase: 10 μM migalastat versus baseline; for 10 μM migalastat α-Gal A activity: incubated 5 days with 10 μM migalastat; for 10 μM migalastat α-Gal A activity (% WT): with 10 μM migalastat, 5 days; for 10 μM migalastat α-Gal A activity (% WT) / Baseline α-Gal A activity (% WT): percentage of baseline wild-type α-Gal A activity; for Baseline α-Gal A activity (% WT): absence of migalastat
Procedure, shortened: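 Activity reported as 4-MU released (nmol/mg/hr), mean±SEM, from lysates of transiently transfected HEK-293 cells expressing mutant α-Gal A, cultured with or without 10 μM migalastat.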

[1] = lysates of HEK-293 cells transiently transfected with the mutant form, incubated 5 days in absence of migalastat, mean ± SEM
[2] = lysates of HEK-293 cells transiently transfected with the mutant form, mean ± SEM

Molecule | Absolute increase (% WT) | Baseline α-Gal A activity (nmol/mg/hr) [1] | 10 μM migalastat α-Gal A activity [2] [nmol/mg/h] | 10 μM migalastat α-Gal A activity (% WT) (mean ± SEM) | Relative increase | Baseline α-Gal A activity (% WT) (mean ± SEM) | Baseline α-Gal A activity [1] [nmol/mg/h]
Q327H (protein) MQLRNPELHLGCALALRFLALVSWDIPGARALDNGLARTPTMGWLHWERFMCNLDCQEEPDSCISEKLFMEMAELMVSEGWKDAGYEYLCIDDCWMAPQRDSEGRLQADPQRFPHGIRQLANYVHSKGLKLGIYADVGNKTCAGFPGSFGYYDIDAQTFADWGVDLLKFDGCYCDSLENLADGYKHMSLALNRTGRSIVYSCEWPLYMWPFQKPNYTEIRQYCNHWRNFADIDDSWKSIKSILDWTSFNQERIVDVAGPGGWNDPDMLVIGNFGLSWNQQVTQMALWAIMAAPLFMSNDLRHISPQAKALLQDKDVIAINQDPLGKHGYQLRQGDNFEVWERPLSGLAWAVAMINRQEIGGPRSYTIAVASLGKGVACNPACFITQLLPVKRKLGFYEWTSRLRSHINPTGTVLLQLENTMQMSLKDLL | 7.4 | BLD (“BLD” indicates that the mean α-Gal A activity was below the limit of detection (<142 nmol/mg/hr)) | 2197 ± 226 | 7.4 ± 0.7 |  |  | 
Y329C (protein) MQLRNPELHLGCALALRFLALVSWDIPGARALDNGLARTPTMGWLHWERFMCNLDCQEEPDSCISEKLFMEMAELMVSEGWKDAGYEYLCIDDCWMAPQRDSEGRLQADPQRFPHGIRQLANYVHSKGLKLGIYADVGNKTCAGFPGSFGYYDIDAQTFADWGVDLLKFDGCYCDSLENLADGYKHMSLALNRTGRSIVYSCEWPLYMWPFQKPNYTEIRQYCNHWRNFADIDDSWKSIKSILDWTSFNQERIVDVAGPGGWNDPDMLVIGNFGLSWNQQVTQMALWAIMAAPLFMSNDLRHISPQAKALLQDKDVIAINQDPLGKQGCQLRQGDNFEVWERPLSGLAWAVAMINRQEIGGPRSYTIAVASLGKGVACNPACFITQLLPVKRKLGFYEWTSRLRSHINPTGTVLLQLENTMQMSLKDLL | 7.8 |  | 11442 ± 480 | 38.9 ± 1.6 | 1.3 | 31.2 ± 1.5 | 9148 ± 414
Y329D (protein) MQLRNPELHLGCALALRFLALVSWDIPGARALDNGLARTPTMGWLHWERFMCNLDCQEEPDSCISEKLFMEMAELMVSEGWKDAGYEYLCIDDCWMAPQRDSEGRLQADPQRFPHGIRQLANYVHSKGLKLGIYADVGNKTCAGFPGSFGYYDIDAQTFADWGVDLLKFDGCYCDSLENLADGYKHMSLALNRTGRSIVYSCEWPLYMWPFQKPNYTEIRQYCNHWRNFADIDDSWKSIKSILDWTSFNQERIVDVAGPGGWNDPDMLVIGNFGLSWNQQVTQMALWAIMAAPLFMSNDLRHISPQAKALLQDKDVIAINQDPLGKQGDQLRQGDNFEVWERPLSGLAWAVAMINRQEIGGPRSYTIAVASLGKGVACNPACFITQLLPVKRKLGFYEWTSRLRSHINPTGTVLLQLENTMQMSLKDLL | 12.5 |  | 4917 ± 181 | 16.7 ± 0.6 | 3.9 | 4.2 ± 0.2 | 1249 ± 66
Q327P (protein) MQLRNPELHLGCALALRFLALVSWDIPGARALDNGLARTPTMGWLHWERFMCNLDCQEEPDSCISEKLFMEMAELMVSEGWKDAGYEYLCIDDCWMAPQRDSEGRLQADPQRFPHGIRQLANYVHSKGLKLGIYADVGNKTCAGFPGSFGYYDIDAQTFADWGVDLLKFDGCYCDSLENLADGYKHMSLALNRTGRSIVYSCEWPLYMWPFQKPNYTEIRQYCNHWRNFADIDDSWKSIKSILDWTSFNQERIVDVAGPGGWNDPDMLVIGNFGLSWNQQVTQMALWAIMAAPLFMSNDLRHISPQAKALLQDKDVIAINQDPLGKPGYQLRQGDNFEVWERPLSGLAWAVAMINRQEIGGPRSYTIAVASLGKGVACNPACFITQLLPVKRKLGFYEWTSRLRSHINPTGTVLLQLENTMQMSLKDLL | 36.4 |  | 18612 ± 1075 | 62.6 ± 3.1 | 2.4 | 26.2 ± 1.8 | 7775 ± 561
